Source: US20240352134A1 (NANJING IMMUNOPHAGE BIOTECH, published 2024)

How the values were obtained:
human CCR8 [1] = target: T1, human CCR8 (human, UniProt P51685 1-355); assay: cell-based or functional assay
human CCR8 [2] = target: T1, human CCR8; assay: cell-based or functional assay; remark: listed apart in the source
human CCR8 [3] = target: T1, human CCR8; assay: FACS on human CCR8-expressing 293F cells
human CCR8 [4] = target: T1, human CCR8; assay: FACS as in Example 2; T0 (the reference itself)
human CCR8 [5] = target: T1, human CCR8; assay: FACS as in Example 2; antibody after 40° C. 1 W; ratio to T0
human CCR8 [6] = target: T1, human CCR8; assay: FACS as in Example 2; antibody after 40° C. 2 W; ratio to T0
human CCR8 [7] = target: T1, human CCR8; assay: FACS as in Example 2; antibody after 40° C. 4 W; ratio to T0
human CCR8 [8] = target: T1, human CCR8; assay: FACS as in Example 2; antibody after Oxidation 24 h; ratio to T0
human CCR8 [9] = target: T1, human CCR8; assay: FACS as in Example 2; antibody after Freeze/thaw 5FT; ratio to T0
human CCR8 [10] = target: T1, human CCR8; assay: flow cytometry on 293F cells expressing hCCR8; column 'Inhibition EC50 (nM)'
Method: (§1) Human, rat, dog, mouse and cynomolgus CCR8 sequence were analysis. The result was shown that ECD2 regions of human, rat, dog, mouse and cynomolgus CCR8 were similar (Table 10). […] After reacting at 4° C. for 1 hour, it was reacted with Alexa Fluor 488 affinpure goat anti-human Ig(H+L) (Jackson, 109-545-003) and flow cytometry analysis was performed. The highest MFI of serially dilution is supposed as 100%, the inhibition percent was calculated according to the following formula.

human CCR8 [11] = target: T1, human CCR8; assay: binding affinity EC50, comparison of Table 12 (FACS on CCR8-expressing cells)
human CCR4 = target: T2, human CCR4 (human, UniProt P51679 1-360); assay: flow cytometry on 293F cells expressing human CCR4; 14 dilutions by 3-fold from 25 µg/mL
T2 construct: whole, on cells; also called hCCR4
T2 sequence (looked up): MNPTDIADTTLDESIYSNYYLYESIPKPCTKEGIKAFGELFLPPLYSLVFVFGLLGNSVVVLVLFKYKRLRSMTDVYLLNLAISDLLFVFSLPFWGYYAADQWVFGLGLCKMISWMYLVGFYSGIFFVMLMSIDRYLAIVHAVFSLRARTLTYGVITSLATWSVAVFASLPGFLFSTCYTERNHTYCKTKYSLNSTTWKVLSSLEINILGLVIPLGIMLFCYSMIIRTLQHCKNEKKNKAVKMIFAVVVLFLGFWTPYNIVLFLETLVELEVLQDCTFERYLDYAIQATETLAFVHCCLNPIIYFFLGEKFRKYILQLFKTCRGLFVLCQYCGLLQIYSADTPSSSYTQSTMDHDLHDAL
Method: (§2) 3F11hz4 humanized antibody was tested for binding to CCR4 and CX3CR1 overexpressing cells by flow cytometry. […] After reacting at 4° C. for 1 hour, it was reacted with Alexa Fluor 488 affinipure goat anti-human Ig(H+L) (Jackson, 109-545-003) and flow cytometry analysis was performed.

human CX3CR1 = target: T3, human CX3CR1 (human, UniProt P49238 1-355); assay: flow cytometry on 293F cells expressing human CX3CR1; 14 dilutions by 3-fold from 25 µg/mL
T3 construct: whole, on cells; also called hCX3CR1
T3 sequence (looked up): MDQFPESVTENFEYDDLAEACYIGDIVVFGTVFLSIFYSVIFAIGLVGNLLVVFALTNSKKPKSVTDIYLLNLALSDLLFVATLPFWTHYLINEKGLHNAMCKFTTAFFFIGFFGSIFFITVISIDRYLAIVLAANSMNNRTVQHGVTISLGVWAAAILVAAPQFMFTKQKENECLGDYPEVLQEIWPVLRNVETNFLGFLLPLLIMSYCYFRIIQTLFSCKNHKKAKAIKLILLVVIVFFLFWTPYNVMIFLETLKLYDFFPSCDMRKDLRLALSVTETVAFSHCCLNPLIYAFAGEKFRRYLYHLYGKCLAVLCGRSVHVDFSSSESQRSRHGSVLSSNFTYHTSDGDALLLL
Method: as §2

hCCR8(Y94A) = target: T4, hCCR8(Y94A) (human, UniProt P51685 1-355); assay: flow cytometry on 293F cells transiently expressing the mutant; column 'Inhibition EC50 (nM)'
T4 construct: whole, on cells
T4 sequence (P51685 whole entry Y94A): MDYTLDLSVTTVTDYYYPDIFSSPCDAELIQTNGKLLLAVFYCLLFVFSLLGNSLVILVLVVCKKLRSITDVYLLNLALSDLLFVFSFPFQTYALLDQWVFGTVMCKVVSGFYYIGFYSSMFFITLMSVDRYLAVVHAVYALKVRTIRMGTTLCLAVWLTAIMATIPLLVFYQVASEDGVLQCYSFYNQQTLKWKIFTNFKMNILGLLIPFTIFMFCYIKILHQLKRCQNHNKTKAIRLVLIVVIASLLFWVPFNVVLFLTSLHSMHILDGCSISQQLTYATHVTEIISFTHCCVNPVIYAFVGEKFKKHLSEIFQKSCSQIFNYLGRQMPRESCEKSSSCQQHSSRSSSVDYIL
Method: as §1

hCCR8(L95A) = target: T5, hCCR8(L95A) (human, UniProt P51685 1-355); assay: as above
T5 construct: whole, on cells
T5 sequence (P51685 whole entry L95A): as the sequence (P51685 whole entry Y94A) above, with A94Y, L95A counted along it
Method: as §1

hCCR8(L96A) = target: T6, hCCR8(L96A) (human, UniProt P51685 1-355); assay: as above
T6 construct: whole, on cells
T6 sequence (P51685 whole entry L96A): as the sequence (P51685 whole entry Y94A) above, with A94Y, L96A counted along it
Method: as §1

hCCR8(D97A) = target: T7, hCCR8(D97A) (human, UniProt P51685 1-355); assay: as above
T7 construct: whole, on cells; also called mutant of 97 aa in CCR8
T7 sequence (P51685 whole entry D97A): as the sequence (P51685 whole entry Y94A) above, with A94Y, D97A counted along it
Method: as §1

hCCR8(Q98A) = target: T8, hCCR8(Q98A) (human, UniProt P51685 1-355); assay: as above
T8 construct: whole, on cells
T8 sequence (P51685 whole entry Q98A): as the sequence (P51685 whole entry Y94A) above, with A94Y, Q98A counted along it
Method: as §1

hCCR8(V100A) = target: T9, hCCR8(V100A) (human, UniProt P51685 1-355); assay: as above
T9 construct: whole, on cells
T9 sequence (P51685 whole entry V100A): as the sequence (P51685 whole entry Y94A) above, with A94Y, V100A counted along it
Method: as §1

hCCR8(T103A) = target: T10, hCCR8(T103A) (human, UniProt P51685 1-355); assay: as above
T10 construct: whole, on cells
T10 sequence (P51685 whole entry T103A): as the sequence (P51685 whole entry Y94A) above, with A94Y, T103A counted along it
Method: as §1

hCCR8(V104A) = target: T11, hCCR8(V104A) (human, UniProt P51685 1-355); assay: as above
T11 construct: whole, on cells
T11 sequence (P51685 whole entry V104A): as the sequence (P51685 whole entry Y94A) above, with A94Y, V104A counted along it
Method: as §1

hCCR8(M105A) = target: T12, hCCR8(M105A) (human, UniProt P51685 1-355); assay: as above
T12 construct: whole, on cells
T12 sequence (P51685 whole entry M105A): as the sequence (P51685 whole entry Y94A) above, with A94Y, M105A counted along it
Method: as §1

hCCR8(K107A) = target: T13, hCCR8(K107A) (human, UniProt P51685 1-355); assay: as above
T13 construct: whole, on cells
T13 sequence (P51685 whole entry K107A): as the sequence (P51685 whole entry Y94A) above, with A94Y, K107A counted along it
Method: as §1

T1 sequence (P51685 whole entry): as the sequence (P51685 whole entry Y94A) above, with A94Y counted along it

B1: 3F11hz4 (antibody, V domains shown)
VH: EVQLVESGGGLVQPGGSLKLSCAASGFSFNTYAMNWVRQASGKGLEWVGRIRSKSNYYATYYAASVKGRFTISRDDSKSTLYLQMNSLKTEDTAVYYCVRGRELGDYYAMDYWGQGTLVTVSS
VL: DIVMTQSPLSLPVTPGEPASISCRSSKSLLHSNGNTYLYWFLQKPGQSPQLLIYRMSNLASGVPDRFSGSGSGTDFTLKISRVEAEDVGVYYCMQHLEYPFTFGQGTKLEIK
notes: Humanized variant of 3F11; also called humanized 3F11hz4 antibody
For B1, the “Calcium mobilization IC50” value (human CCR8 [1]) was 4000 pM, the “Calcium mobilization IC50 (nM) Ratio; 40° C. 1 W” value (human CCR8 [2]) was 1.31 and the “Calcium mobilization IC50 (nM) Ratio; 40° C. 2 W” value (human CCR8 [2]) was 1.03. For the same binder, the “Calcium mobilization IC50 (nM) Ratio; 40° C. 4 W” value (human CCR8 [2]) was 2.22, the “Calcium mobilization IC50 (nM) Ratio; Freeze/thaw 5FT” value (human CCR8 [2]) was 1.5 and the “Calcium mobilization IC50 (nM) Ratio; Oxidation 24 h” value (human CCR8 [2]) was 1.63. For the same binder, the “Calcium mobilization IC50 (nM) Ratio; T0” value (human CCR8 [2]) was 1, the EC50 (human CCR8 [3]) was 194 pM and the “Affinity EC50 (nM) Ratio” value (human CCR8 [4]) was 1. The “Affinity EC50 (nM) Ratio” value (human CCR8 [5]) was 1.34, the “Affinity EC50 (nM) Ratio” value (human CCR8 [6]) was 1.27 and the “Affinity EC50 (nM) Ratio” value (human CCR8 [7]) was 1.35. For the same binder, the “Affinity EC50 (nM) Ratio” value (human CCR8 [8]) was 1.36, the “Affinity EC50 (nM) Ratio” value (human CCR8 [9]) was 1.22 and the EC50 (human CCR8 [10]) was 234 pM. For the same binder, the EC50 (human CCR8 [11]) was 190 pM, the binding result (human CCR4) was “no binding (tested: 25 µg/mL)” and the binding result (human CX3CR1) was “no binding (tested: 25 µg/mL)”. For the same binder, the EC50 (hCCR8(Y94A)) was 306 pM, the EC50 (hCCR8(L95A)) was 459 pM and the EC50 (hCCR8(L96A)) was 280 pM. For the same binder, the EC50 (hCCR8(D97A)) was 24000 pM, the EC50 (hCCR8(Q98A)) was 194 pM and the EC50 (hCCR8(V100A)) was 237 pM. For the same binder, the EC50 (hCCR8(T103A)) was 311 pM, the EC50 (hCCR8(V104A)) was 341 pM and the EC50 (hCCR8(M105A)) was 334 pM. For the same binder, the EC50 (hCCR8(K107A)) was 220 pM.
